Entries after “also recorded” stand apart in the source; their conditions may differ.
Experiments:
[1] = system: P. sojae; assay: Hyphal growth rate; format: cell-based, Phytophthora sojae; details: data not shown
[2] = system: Phytophthora cinnamomi; format: cell-based
[3] = system: P. cinnamomi; assay: Hyphal growth rate; format: cell-based, Phytophthora cinnamomi; details: data not shown
[4] = system: E. coli; assay: Growth curves of E. coli expressing Alt-PLC and truncations; format: cell-based; details: relative to E. coli not expressing Alt-PLC
Method: An analysis of function of the Alt-PLC truncations was performed using growth curves of Alt-PLC expressing E. coli cells (FIG. 28).
Therefore, growth curves of E. coli expressing Alt-PLC and the truncations allow determination of Alt-PLC function in vivo.

[5] = Hydrolysis of PIPx, neutral-lipid TLC; format: biochemical; details: 0.2 mg/ml enzyme; listed as Alt-PLC1
Method: Lipid samples of 0.5 μl were applied to silica 60 TLC plates and allowed to dry prior to the addition of more sample. Neutral lipids were applied to 10×20 cm pre-absorption zone-bearing silica-60 plates (Sigma-Aldrich, USA) and resolved in a solvent mixture of hexane:diethyl ether:acetic acid (9:1:0.5). Phospholipids were resolved on 20×20 cm silica-60 plates (Merck, Australia), without a pre-absorption zone, in a solvent mixture of chloroform:methanol:acetic acid:water (90:40:12:2). Lipids were detected by spraying the dried TLC plates with a solution of 0.05% rhodamine B (Sigma) in methanol and destaining was performed by repeated spraying with 5 M KOH. Lipid spots were then visualised following UV excitation at 312 nm.
Alt-PLC and Alt-PLC2 were refolded into buffer A4 at a concentration of 0.2 mg/ml and a hydrolysis reaction was performed using PIPx (mixed phosphatidylinositols, Sigma) as the substrate. The reaction was performed as described previously and the resultant neutral lipids were extracted by diethyl ether phase extraction. The samples were analysed by neutral-lipid thin-layer chromatography, on silica 60 plates with a pre-absorption zone; the mobile phase employed was hexane: diethyl ether: acetic acid (9:1:0.5).

[6] = IP3 production from bovine brain phosphatidylinositols, ESI-MS; format: biochemical; details: CaCl2 or EDTA; three protein batches
Method: All mass spectra were produced using a 6210 MSDTOF mass spectrometer (Agilent Technologies, Australia) with the following conditions: drying gas, nitrogen ([…], 350° C.); nebulizer gas, nitrogen (16 psi); capillary voltage, ±4.0 kV; vaporizer temperature, 350° C.; and cone voltage, 60V, 5 μL.
To test for phospholipase C-like function of Alt-PLC, electrospray ionization mass spectrometry (ESI-MS) was utilized to identify of inositol(1,4,5)triphosphate (IP3) produced from reactions of Alt-PLC with lipids.
Three separate batches of protein (purified from independent transformations) were prepared and reacted with a mixture of phosphatidylinositols from bovine brain in the presence of CaCl2 or in the presence of EDTA. Chloroform phase-extraction was performed and the aqueous phase analysed for the presence of IP3 by ESI-MS.

[7] = In-solution hydrolysis of diC8-PI(4,5)P2, products by ESI-MS, TLC and NMR; format: biochemical; details: with calcium, 60 min
Method: Five milligrams of lyophilised, synthetic 1,2-dioctanol-D-myo-phosphatidylinositol(4,5)bisphosphate (diC8-PI(4,5)P2: Echelon Biosciences, USA) was resuspended in 500 μl of 20 mM tris pH:8.0; to this, 100 μl of 1M CaCl2 and 400 μl of refolded Alt-PLC (0.1 mg/ml) in buffer A4 were added and the reaction allowed to proceed for 60 min. The reaction was stopped by phase separation with the addition of 3.75 ml of chloroform:methanol:12N HCl (2:4:0.1) and mixed thoroughly before the addition of 1.25 ml of chloroform. The solution was then vortexed for 30 sec before addition of 1.25 ml of ddH2O and then further vortexed for 30 seconds. The sample was then centrifuged at 1000 rpm for 10 min in a swinging bucket rotor at 4° C. The upper aqueous layer (containing inositols) and the lower chloroform layer (containing all lipids and phospholipids) were separately lyophilised in glass tubes and stored at −80° C. for further analysis. Further separation of polar and non-polar lipids, developed by the hydrolysis reaction, was performed by resuspending the lyophilised, chloroform layer in 1 mil 75% methanol and then adding 1 ml of n-hexane. […]
The unusual nature of this double hydrolysis led the Applicant to perform NMR on the MAG and acyl arg fractions as an additional confirmation of the ESI-MS results. […] NMR spectra were recorded at 400 MHz at −55° C. […]

Molecule	hyphal growth rate [1]	PIP2 level and distribution in hyphae [2]	hyphal growth rate [3]	growth of expressing E. coli (function in vivo) [4]	monoacylglycerol production / phospholipase C activity level in vitro [5]	IP3 production (m/z 160.6) [6]	products of hydrolysis [7]
COc1ccc2c(c1)CC[C@@H]1[C@@H]2CC[C@]2(C)[C@@H](NCCCCCCN3C(=O)C=CC3=O)CC[C@@H]12 [U-73122]	markedly reduces hyphal growth rate	PIP2 increased; also recorded: PIP2 showed an almost uniform membrane distribution, indicating uncontrolled accumulation	markedly reduces hyphal growth rate				
Alt-PLC: Phytophthora sojae alternative phospholipase C, SEQ ID NO: 5; codon optimised, his-tagged, expressed in E. coli (protein, listed as Phytophthora sojae, His tag, codon optimised, his-tagged, expressed in E. coli) MASGWRQKPRLDPWDPPSPPPLLEEAAPKPKPKTSRFSRRSTRAKSHARQQAQHVELEVEEHAEQRDRDKRRSLLASMFGERAQSRASRSSSDASALQSQTQTLVQREKAFRLVRHGSDPLLNDAFYATQVQVGNFVKMGWLTKQGHMWKSWKTRFFVLFSDGTFAYYKNKGRKKIKGCMQLNDGVVSVQHVDIRLADKAYVFQIEKGFYKLLCYCCSQFEAELWVAALRSVRRVAPPCYEMDLTATEEKAGSNAVTRHLNKIFITDKQIAKRLAEFKANTHDHSYAAIHNFIVELDDAIIDRHHLEFYQDAEIELLPGNELVRLIRRHVEDRVFIPLYAEAYASLETDKVKTRRSNLEQHLKVLKQKTQADFGISKDLSVCNWKQAISVVNMLDCVSLPTHKFEVILSAGKAIMELIAQYNGELFEVSDEMLTAIFRYVVTMSSLSDLPTLRALLKYGYQHHPASQNKANVVTAFLNAIKWVECFEAGDESYQFDSLALAGSRVSVSISTNDVGIQFTTDGNGRGAIVYNIRKQSQAALSAAIVPGLSLIAINHEPVIALEFAVKIDYSHRIEVDKSASYLGSQMPNSSWKMVDKDDHVSRSARPGSVDDLIRELVAGTEVDLVDVVSFVLFLDSFSSLNEVVDRLSAHVRNGVKSHGLIRLFIVVLLFRQSETKEADDLRDRFYSLISLNIDAKDKLVPLVEEYMSLYKEYFSLRGAGNYAVNYQAIPGMMSKVYGMESGFEPVSSGPFSAHLHRFVDAERWAEQCTLLTHAVFCKIPVRDFIPTGSKKKHSVEFTSIKRWFQHISAFVINAVLVQNTPEERAEVISFYLKLSLDAKKMMNEMQLLSDKGCREMNRLMRKTANPSMPYIGLYLQGFVGLNELPAFDKEGLVNANRLRRMGELAMEILHRQSVAYTLQHDEDVNKLLHVSLPYSSEESRYARSLELEPREADAIPLSDRGSYTLIDDDVDLENEVRESIGGDGTFGFRQWIRKQQVVHRNRSRSSVIALYEWV				characteristic reduced growth of the bacteria	detection of monoacylglycerol production; also recorded: higher activity level in vitro than Alt-PLC2	IP3 was produced in the Ca^2+-activated reactions, but was not produced in the presence of EDTA	1-monacylglycerol, a free fatty acid (FFA) and inositol(1,4,5)triphosphate
